Measurements taken from the supplement of paper PMC9732359.
± gives the uncertainty stated by the source.

Assay: protein stability index of a GFP-peptide fusion (yeast GPS) (PSI 1-4); higher = more stable; sorted into four equal gates, so the index is relative within each strain
In short: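 For each peptide, the protein stability index sums the read frequency in every gate after multiplying it by the gate number. Read frequencies came from plasmids that were PCR-amplified from each gate and Illumina-sequenced, with reads assigned to strains by barcodes. The gates were four equal bins of GFP/Cherry fluorescence ratio applied to mid-log yeast in leucine-free medium carrying a pooled library of tiled 17-residue yeast protein peptides fused downstream of GFP on a Cherry-expressing plasmid.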

Sequence: PFYGSYTETDPAKVAEE [SRP54]
- protein stability index (doa10∆): 3.19 ± 0.1
- protein stability index (pdr5∆): 3.01 ± 0.14
- protein stability index (san1∆): 3.08 ± 0.055
- protein stability index (ubr1∆): 2.82 ± 0.099

Sequence: TTAVDALQKGLKDLMDL [RPC19]
- protein stability index (doa10∆): 3.58 ± 0.23
- protein stability index (pdr5∆): 2.79 ± 0.26
- protein stability index (san1∆): 2.9 ± 0.12
- protein stability index (ubr1∆): 3.02 ± 0.13

Sequence: DLRIRIKLDIVVGQNQL [SNF5]
- protein stability index (doa10∆): 1.38 ± 0.088
- protein stability index (pdr5∆): 1.38 ± 0.086
- protein stability index (san1∆): 1.67 ± 0.1
- protein stability index (ubr1∆): 1.75 ± 0.071

Sequence: ENLEESFLSKHALYLAP [SSN2]
- protein stability index (doa10∆): 3.12 ± 0.056
- protein stability index (pdr5∆): 3.31 ± 0.065
- protein stability index (san1∆): 3.26 ± 0.044
- protein stability index (ubr1∆): 3.28 ± 0.05

Sequence: VTSEKYPFDKLESWWLV [BRR2]
- protein stability index (doa10∆): 2.42 ± 0.29
- protein stability index (pdr5∆): 2.91 ± 0.19
- protein stability index (san1∆): 2.79 ± 0.12
- protein stability index (ubr1∆): 3.3 ± 0.087

Sequence: ELALKTLSKTTDSSALT [PRE9]
- protein stability index (doa10∆): 2.62 ± 0.057
- protein stability index (pdr5∆): 2.1 ± 0.06
- protein stability index (san1∆): 2.54 ± 0.065
- protein stability index (ubr1∆): 2.73 ± 0.043

Sequence: NINSTDKSIDTSSLQLY [YML103C/NUP188]
- protein stability index (doa10∆): 2.98 ± 0.099
- protein stability index (pdr5∆): 2.67 ± 0.14
- protein stability index (san1∆): 3.11 ± 0.049
- protein stability index (ubr1∆): 3.25 ± 0.07

Sequence: GDYVAYQLNGVAPFMIK [YMR129W/POM152]
- protein stability index (doa10∆): 1.53 ± 0.075
- protein stability index (pdr5∆): 1.49 ± 0.08
- protein stability index (san1∆): 1.66 ± 0.17
- protein stability index (ubr1∆): 1.84 ± 0.059

Sequence: QDREITNWARTTFRNEY [MED8]
- protein stability index (doa10∆): 2.49 ± 0.09
- protein stability index (pdr5∆): 2.07 ± 0.083
- protein stability index (san1∆): 2.47 ± 0.092
- protein stability index (ubr1∆): 2.51 ± 0.096

Sequence: ADTKAPTFTFGSSALAD [YLR335W/NUP2]
- protein stability index (doa10∆): 3.25 ± 0.069
- protein stability index (pdr5∆): 3.01 ± 0.053
- protein stability index (san1∆): 3.08 ± 0.048
- protein stability index (ubr1∆): 3.11 ± 0.033

Sequence: TTTATPHANPITHAHSL [PGD1]
- protein stability index (doa10∆): 2.84 ± 0.043
- protein stability index (pdr5∆): 3.01 ± 0.041
- protein stability index (san1∆): 2.88 ± 0.035
- protein stability index (ubr1∆): 3.003 ± 0.029

Sequence: NQLSQTNKLLFKRVSQT [NUT1]
- protein stability index (doa10∆): 1.92 ± 0.042
- protein stability index (pdr5∆): 1.36 ± 0.037
- protein stability index (san1∆): 1.37 ± 0.083
- protein stability index (ubr1∆): 1.38 ± 0.035

Sequence: ETYVASYVVPRLYLKDQ [ECM29]
- protein stability index (doa10∆): 2.46 ± 0.1
- protein stability index (pdr5∆): 1.93 ± 0.088
- protein stability index (san1∆): 1.91 ± 0.24
- protein stability index (ubr1∆): 2.32 ± 0.054

Sequence: TLSFNFSQKANKTKAVD [YOR098C/NUP1]
- protein stability index (doa10∆): 2.03 ± 0.085
- protein stability index (pdr5∆): 1.55 ± 0.059
- protein stability index (san1∆): 1.84 ± 0.1
- protein stability index (ubr1∆): 1.71 ± 0.057

Sequence: MSGSLSRGNGGKKVLNK [POP1]
- protein stability index (doa10∆): 1.34 ± 0.15
- protein stability index (pdr5∆): 2.48 ± 0.11
- protein stability index (san1∆): 1.32 ± 0.22
- protein stability index (ubr1∆): 2.97 ± 0.11

Sequence: LSSDEKRELLKRYRLKE [RPB5]
- protein stability index (doa10∆): 3.08 ± 0.2
- protein stability index (pdr5∆): 3.27 ± 0.17
- protein stability index (ubr1∆): 3.52 ± 0.14

Sequence: SNLSPDLKFKRHKNKHI [DSN1]
- protein stability index (doa10∆): 2.71 ± 0.1
- protein stability index (pdr5∆): 2.58 ± 0.15
- protein stability index (san1∆): 2.28 ± 0.077
- protein stability index (ubr1∆): 2.17 ± 0.13

Sequence: KDFTNKNLIQLISLKLL [SRB8]
- protein stability index (doa10∆): 1.28 ± 0.042
- protein stability index (pdr5∆): 1.49 ± 0.035
- protein stability index (san1∆): 1.66 ± 0.067
- protein stability index (ubr1∆): 1.91 ± 0.032

Sequence: QVARTNLDGTKAVKLRK [ROX3]
- protein stability index (doa10∆): 3.03 ± 0.07
- protein stability index (pdr5∆): 3.13 ± 0.063
- protein stability index (san1∆): 2.98 ± 0.051
- protein stability index (ubr1∆): 3.15 ± 0.058

Sequence: WSEITESMSYLPDPILK [MCD1]
- protein stability index (pdr5∆): 2.97 ± 0.18
- protein stability index (san1∆): 2.92 ± 0.23
- protein stability index (ubr1∆): 2.64 ± 0.1

Sequence: GTSQNYGTATADDADIE [MED1]
- protein stability index (doa10∆): 3.22 ± 0.071
- protein stability index (pdr5∆): 3.29 ± 0.073
- protein stability index (san1∆): 3.08 ± 0.058
- protein stability index (ubr1∆): 3.24 ± 0.061

Sequence: GGFEYFLQPLLLVGLIK [NUT1]
- protein stability index (doa10∆): 1.46 ± 0.056
- protein stability index (pdr5∆): 1.52 ± 0.063
- protein stability index (san1∆): 1.37 ± 0.11
- protein stability index (ubr1∆): 1.87 ± 0.12

Sequence: SSNPQSAYVKAFYQKGN [SMC1]
- protein stability index (doa10∆): 1.87 ± 0.049
- protein stability index (pdr5∆): 1.98 ± 0.047
- protein stability index (san1∆): 1.96 ± 0.052
- protein stability index (ubr1∆): 1.95 ± 0.033

Sequence: KASTYGELVLDIEVPDV [SNF12]
- protein stability index (doa10∆): 2.61 ± 0.058
- protein stability index (pdr5∆): 2.28 ± 0.051
- protein stability index (san1∆): 2.13 ± 0.075
- protein stability index (ubr1∆): 1.87 ± 0.045

Sequence: TSSAPAQNQGMFGAKPA [YGL172W/NUP49]
- protein stability index (doa10∆): 2.44 ± 0.11
- protein stability index (pdr5∆): 2.75 ± 0.089
- protein stability index (san1∆): 1.92 ± 0.14
- protein stability index (ubr1∆): 2.79 ± 0.069

Sequence: LSNLHESNKRYRFFKKI [SNF12]
- protein stability index (doa10∆): 2.79 ± 0.12
- protein stability index (pdr5∆): 2.68 ± 0.081
- protein stability index (san1∆): 2.9 ± 0.08
- protein stability index (ubr1∆): 2.24 ± 0.065

Sequence: KHYKNIPRNSPLSDLKK [RPC82]
- protein stability index (doa10∆): 2.88 ± 0.15
- protein stability index (pdr5∆): 2.97 ± 0.17
- protein stability index (san1∆): 2.59 ± 0.19
- protein stability index (ubr1∆): 2.97 ± 0.083
